Results from article PMC6277709, “Lipid-Modified Azurin of Neisseria gonorrhoeae Is Not Surface Exposed and Does Not Interact With the Nitrite Reductase AniA” (Frontiers in Microbiology, 2018).

Molecular target: the molecule itself
Test: cross-linking; in vivo: intact living N. gonorrhoeae (WT or Δlaz, grown under standard aerobic conditions) in PBS with 0, 0.1, 0.25 or 0.4 mM DSP, 37°C, 5% CO2, 30 min; quenched with 50 mM Tris-HCl pH 8.0; SDS-PAGE without reducing agent at 4°C; immunoblot with anti-BamA, anti-AniA or anti-Laz antiserum

B1: Nitrite reductase AniA of Neisseria gonorrhoeae FA1090, endogenous in living gonococci (enzyme)
chain: CGGEQAAQAPAETPAASAEAASSAAQATAETPAGELPVIDAVTTHAPEVPPAIDRDYPAKVRVKMETVEKTMKMDDGVEYRYWTFDGDVPGRMIRVREGDTVEVEFSNNPSSTVPHNVDFHAATGQGGGAAATFTAPGRTSTFSFKALQPGLYIYHCAVAPVGMHIANGMYGLILVEPKEGLPKVDKEFYIVQGDFYTKGKKGAQGLQPFDMDKAVAEQPEYVVFNGHVGSIAGDNALKAKAGETVRMYVGNGGPNLVSSFHVIGEIFDKVYVEGGKLINENVQSTIVPAGGSAIVEFKVDIPGSYTLVDHSIFRAFNKGALGQLKVEGAENPEIMTQKLSDTAYAGSGAASAPAASAPAASAPAASASEKSVY
notes: source: endogenous, living N. gonorrhoeae FA1090 (WT and Δlaz) cells
stoichiometry N: 3
